# Measurements: publication PMC3433253 (Journal of molecular biology, 2012)
# Positions count from the first letter of the chain named.
# B1: CC2D1A(346-455) (domain or fragment, human, UniProt Q6P1N0 346-455, looked up)
# chain: RTLLEALEQRMERYQVAAAQAKSKGDQRKARMHERIVKQYQDAIRAHKAGRAVDVAELPVPPGFPPIQGLEATKPTQQSLVGVLETAMKLANQDEGPEDEEDEVPKKQNS
# B2: CC2D1A(346-494) (domain or fragment, human, UniProt Q6P1N0 346-494, looked up)
# chain: RTLLEALEQRMERYQVAAAQAKSKGDQRKARMHERIVKQYQDAIRAHKAGRAVDVAELPVPPGFPPIQGLEATKPTQQSLVGVLETAMKLANQDEGPEDEEDEVPKKQNSPVAPTAQPKAPPSRTPQSGSAPTAKAPPKATSTRAQQQL
# B3: MBP-CHMP4B(7-105) (domain or fragment, UniProt Q9H444 7-105, looked up)
# chain: LFGAGGGKAGKGGPTPQEAIQRLRDTEEMLSKKQEFLEKKIEQELTAAKKHGTKNKRAALQALKRKKRYEKQLAQIDGTLSTIEFQREALENANTNTEV
# B4: MBP-CHMP4B(7-105)_(mut1) (domain or fragment, UniProt Q9H444 7-105, looked up)
# chain: B3 chain with R22A, R24A, D25R, E27R
# B5: CHMP4B(7-110), MBP removed (domain or fragment, UniProt Q9H444 7-110, looked up)
# chain: LFGAGGGKAGKGGPTPQEAIQRLRDTEEMLSKKQEFLEKKIEQELTAAKKHGTKNKRAALQALKRKKRYEKQLAQIDGTLSTIEFQREALENANTNTEVLKNMG
# B6: MBP-CHMP4B(7-110) (domain or fragment, UniProt Q9H444 7-110, looked up)
# chain: B5 chain
# B7: CC2D1A(309-494) (domain or fragment, human, UniProt Q6P1N0 309-494, looked up)
# chain: SCLPPPPDQLPPDPPSPPSQPPTPATAPSTTEVPPPPRTLLEALEQRMERYQVAAAQAKSKGDQRKARMHERIVKQYQDAIRAHKAGRAVDVAELPVPPGFPPIQGLEATKPTQQSLVGVLETAMKLANQDEGPEDEEDEVPKKQNSPVAPTAQPKAPPSRTPQSGSAPTAKAPPKATSTRAQQQL
# Experiments:
# [1] = target: T1, MBP-CHMP4B(23-97) (UniProt Q9H444 23-97); experiment: ITC
# T1 sequence (looked up): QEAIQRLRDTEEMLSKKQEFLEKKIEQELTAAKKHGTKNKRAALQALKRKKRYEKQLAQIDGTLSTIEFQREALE
# [2] = target: B6; experiment: ITC
# [3] = target: T2, CHMP4B(23-97), MBP removed (UniProt Q9H444); experiment: SEC-MALS
# T2 sequence (Q9H444 23-97, species assumed, looked up): T1 sequence (looked up)
# [4] = target: B1; experiment: SPR
# [5] = target: T3, CC2D1B(1-601) (UniProt Q5T0F9 1-601); experiment: SEC-MALS
# T3 sequence (looked up): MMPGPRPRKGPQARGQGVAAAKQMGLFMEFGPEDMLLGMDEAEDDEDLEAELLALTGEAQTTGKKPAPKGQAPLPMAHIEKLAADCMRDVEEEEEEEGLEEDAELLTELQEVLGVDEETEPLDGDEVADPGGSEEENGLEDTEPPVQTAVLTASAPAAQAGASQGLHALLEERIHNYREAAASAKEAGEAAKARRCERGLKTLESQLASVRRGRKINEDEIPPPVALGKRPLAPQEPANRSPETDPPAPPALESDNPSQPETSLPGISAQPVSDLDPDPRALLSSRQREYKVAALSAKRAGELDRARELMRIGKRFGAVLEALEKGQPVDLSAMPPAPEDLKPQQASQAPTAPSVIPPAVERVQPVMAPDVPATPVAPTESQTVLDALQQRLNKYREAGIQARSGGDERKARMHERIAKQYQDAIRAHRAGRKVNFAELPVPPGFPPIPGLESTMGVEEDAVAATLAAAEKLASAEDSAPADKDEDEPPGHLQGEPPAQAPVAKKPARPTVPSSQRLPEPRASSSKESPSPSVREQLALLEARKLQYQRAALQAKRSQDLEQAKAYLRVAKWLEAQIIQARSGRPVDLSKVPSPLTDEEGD
# [6] = target: T3, CC2D1B(1-601); experiment: ITC
binder,measurement,setting,value
B1,dH,[1],-14600 kcal/mol
same,stoichiometry N,[1],0.9
same,dH,[2],-8190 kcal/mol
same,stoichiometry N,[2],0.9
same,stoichiometry N,[3],1
B2,dH,[2],-8160 kcal/mol
same,stoichiometry N,[2],1.03
B3,koff,[4],0.0079 s⁻¹
same,kon,[4],25000 M⁻¹ s⁻¹
B4,koff,[4],0.0017 s⁻¹
same,kon,[4],1200 M⁻¹ s⁻¹
B5,stoichiometry N,[5],1
B6,dH,[6],-13700 kcal/mol
same,stoichiometry N,[6],1.02
B7,dH,[2],-7380 kcal/mol
same,stoichiometry N,[2],0.84
